# Results: patent US20050002904A1, “Uses of vascular endothelial growth factor and type I collagen inducible protein (VCIP)” (priority 2003, published 2005)
# System: VCIP
# Test: VCIP mRNA induction by growth factors and cytokines in monolayer cells
# Type: cell-based, human
# Details: 6 h, northern blot
# Experimental: FIGS. 1A-M show expression analysis and predicted amino acid sequence of VEGF and type I collagen inducible protein (VCIP). FIG. 1A: HUVECs were embedded into three-dimensional type I collagen gel in the presence of 20% adult human serum, 1× ITS and stimulated with VEGF^165 (100 ng/ml). Total RNA was prepared at the indicated time points. Northern blots were hybridized with a fragment of the VCIP (clone-33A) cDNA probe. The transcript size (3.4 kb) is indicated on the right. The numbers at the bottom of the gel represent the fold increase in VCIP mRNA levels, as compared with untreated cells. […] Total RNA was isolated at indicated time points and subjected to VCIP northern blot analysis. […] FIG. 1E: Poly(A)^+ RNA prepared from various human tissues was subjected to VCIP northern blot analysis by hybridization with the clone-33A cDNA probe. FIG. 1F: The blot shown in FIG. 1E was re-hybridized with a GAPDH probe, showing that equal amounts of RNA were loaded across the lanes. FIG. 1G: Detection of VCIP mRNA by RT-PCR (20 cycles): monolayer endothelial cells were treated for 30 min with: (1) untreated, (2) bFGF (20 ng/ml), (3) VEGF^165 (100 ng/ml), (4) PMA (20 ng/ml), (5) bFGF (20 ng/ml)+VEGF (100 ng/ml), (6) bFGF (20 ng/ml)+PMA (20 ng/ml), (7) VEGF (100 ng/ml)+PMA (20 ng/ml) and (8) bFGF (20 ng/ml)+VEGF (100 ng/ml)+PMA (20 ng/ml). […]
molecule,measurement,setting,value
"EGF: growth factor (protein, UniProt P01133 23-1207, looked up, Pro-epidermal growth factor) Pro-epidermal growth factor: PQHWSCPEGTLAGNGNSTCVGPAPFLIFSHGNSIFRIDTEGTNYEQLVVDAGVSVIMDFHYNEKRIYWVDLERQLLQRVFLNGSRQERVCNIEKNVSGMAINWINEEVIWSNQQEGIITVTDMKGNNSHILLSALKYPANVAVDPVERFIFWSSEVAGSLYRADLDGVGVKALLETSEKITAVSLDVLDKRLFWIQYNREGSNSLICSCDYDGGSVHISKHPTQHNLFAMSLFGDRIFYSTWKMKTIWIANKHTGKDMVRINLHSSFVPLGELKVVHPLAQPKAEDDTWEPEQKLCKLRKGNCSSTVCGQDLQSHLCMCAEGYALSRDRKYCEDVNECAFWNHGCTLGCKNTPGSYYCTCPVGFVLLPDGKRCHQLVSCPRNVSECSHDCVLTSEGPLCFCPEGSVLERDGKTCSGCSSPDNGGCSQLCVPLSPVSWECDCFPGYDLQLDEKSCAASGPQPFLLFANSQDIRHMHFDGTDYGTLLSQQMGMVYALDHDPVENKIYFAHTALKWIERANMDGSQRERLIEEGVDVPEGLAVDWIGRRFYWTDRGKSLIGRSDLNGKRSKIITKENISQPRGIAVHPMAKRLFWTDTGINPRIESSSLQGLGRLVIASSDLIWPSGITIDFLTDKLYWCDAKQSVIEMANLDGSKRRRLTQNDVGHPFAVAVFEDYVWFSDWAMPSVMRVNKRTGKDRVRLQGSMLKPSSLVVVHPLAKPGADPCLYQNGGCEHICKKRLGTAWCSCREGFMKASDGKTCLALDGHQLLAGGEVDLKNQVTPLDILSKTRVSEDNITESQHMLVAEIMVSDQDDCAPVGCSMYARCISEGEDATCQCLKGFAGDGKLCSDIDECEMGVPVCPPASSKCINTEGGYVCRCSEGYQGDGIHCLDIDECQLGEHSCGENASCTNTEGGYTCMCAGRLSEPGLICPDSTPPPHLREDDHHYSVRNSDSECPLSHDGYCLHDGVCMYIEALDKYACNCVVGYIGERCQYRDLKWWELRHAGHGQQQKVIVVAVCVVVLVMLLLLSLWGAHYYRTQKLLSKNPKNPYEESSRDVRSRRPADTEDGMSSCPQPWFVVIKEHQDLKNGGQPVAGEDGQAADGSMQPTSWRQEPQLCGMGTEQGCWIPVSSDKGSCPQVMERSFHMPSYGTQTLEGGVEKPHSLLSANPLWQQRALDPPHQMELTQ",induction of VCIP expression,A431 epidermoid carcinoma cells,strongly induced
same,induction of VCIP expression,HdMVECs,but not to EGF
